US20260150817A1

Molecular target: Spike protein of the COVID-19 Spike-ACE2 Binding Assay Kit (Raybiotech) (SARS-CoV-2) (UniProt P0DTC2)

Q: With “human SAT Nb-Fc control VH-Ab-8 (HAb8-S) (Fc fusion)” as the substance, how does the IC50 read?
A: The IC50 was 0.079 nM.
